Biological target: the molecule itself
Experiment: SEC-SAXS; purified FLAG-FlbB-His6 at 4 mg/ml, 10 mM HEPES, 140 mM NaCl, pH 7.3; Shodex 802.5 SEC column, SIBYLS beamline 12.3.1; molecular weight from the volume of correlation

B1: FLAG-FlbB-His6 (deleted the first 42 aa from the FlbB) (domain or fragment)
chain: FPEFVRTKLLGETSLVFDHNSNIILDEARLVKEREAIDIKNQQIEKLKEDLKLKEDSLNKLEFELKQKQKDLDLKQKVIDDIINKYNDEEANILQTAVYLMNMPPEDAVKRLEDLNPELAISYMRKIEELSKKEGRLSIVPYWLSLMDSKKAAILIRKMSVSSLE
notes: FlbB, periplasmic flagellar collar protein of Borrelia burgdorferi (205 amino acids); the first 42 aa (with the N-terminal transmembrane helix) deleted; The deletion of the first 42 aa is stated only for the SEC-SAXS sample; Monomer estimated at 20.85 kDa; also called FlbB-6His; source: E. coli codon plus cells; in lysate of mixed cells (pull-downs); purified recombinant (SEC-SAXS, far-western); …
**Q.** B1 was tested. Which “stoichiometry N” value did it give?
**A.** The value was 2.

— paper PMC11750108, “FlbB forms a distinctive ring essential for periplasmic flagellar assembly and motility in Borrelia burgdorferi” (PLOS Pathogens, 2025)
